Source: patent publication US20230212319A1, “NOVEL ANTIGEN BINDING DOMAINS AND SYNTHETIC ANTIGEN RECEPTORS INCORPORATING THE SAME” (University of Southern California, priority 2020, published 2023)

B1: 22178 (protein)
chain: MALPVTALLLPLALLLHAARPEVQLVESGGGVVQPGRSLRLSCAASGFSFSGYGMHWVRQAPGKGLEWVAYISYDGSNKYYADSVKGRFTISRDNSKNTLYLQMNSLRAEDTAVYYCAKDPAWGLRLGESSSYDFDIWGQGTMVTVSSGTGGGGSGGGGSGGGGSEFDIQMTQSPSSLSASVGDRVTITCKASDHINNWLAWYQQKPGQAPKLLIYGATTLETGVPSRFSGSGSGTDYTLTISSLQPEDFATYYCQQSWNTPWTFGQGTKLEIKRLEDLKNVFPPEVAVFEPSKAEIAHTQKATLVCLATGFYPDHVELSWWVNGKEVHSGVCTDPQPLKEQPALNDSRYCLSSRLRVSATFWQNPRNHFRCQVQFYGLSENDEWTQDRAKPVTQIVSAEAWGRADCGITSASYHQGVLSATILYEILLGKATLYAVLVSALVLMAMVKRKDSRGRAKRSGSGATNFSLLKQAGDVEENPGPTSATMDWIWRILFLVGAATGAHSGPQVQLQESGGGLAQAGGSLRLSCAASGRTFSMGWFRQAPGKEREFVAAITYSGGSPYYASSVRGRFTISRDNAKNTVYLQMNSLKPEDTAVYYCAANPTYGSDWNAENWGQGTQVTVSSGSGGGGSGGGGSGGGGSFEQVQLQQPGAELVKPGASVKMSCKASGYAFSSYWINWMKQKPGQGLEWIGQIYPGDGDTNYNGKFKGRATLTADTSSSTAYMQLSSLTSEDSAVYFCARSITTVVGCAMDYWGQGTSVTVSSTRIQNPDPAVYQLRDSKSSDKSVCLFTDFDSQTNVSQSKDSDVYITDKCVLDMRSMDFKSNSAVAWSNKSDFACANAFNNSIIPEDTFFPSSDVPCDVKLVEKSFETDTNLNFQNLSVIGFRILLLKVAGFNLLMTLRLWSSRAKRSGSGVKQTLNFDLLKLAGDVESNPGPSRGHMTEYKPTVRLATRDDVPRAVRTLAAAFADYPATRHTVDPDRHIERVTELQELFLTRVGLDIGKVWVADDGAAVAVWTTPESVEAGAVFAEIGPRMAELSGSRLAAQQQMEGLLAPHRPKEPAWFLATVGVSPDHQGKGLGSAVVLPGVEAAERAGVPAFLETSAPRNLPFYERLGFTVTADVEVPEGPRTWCMTRKPGA
B2: 22287 (protein)
chain: MALPVTALLLPLALLLHAARPACEVQLLESGGGLIQPGGSLRLSCAASGFTFSSHAMTWVRQAPGKGLEWVSAISGSGDYTHYADSVKGRFTISRDNSKNTVYLQMNSLRAEDSAVYYCAKDEDGGSLLGHRGQGTLVTVSSGTGGGGSGGGGSGGGGSEFDIQMTQSPSSLSASVGDRVTITCKASDHINNWLAWYQQKPGQAPKLLIYGATTLETGVPSRFSGSGSGTDYTLTISSLQPEDFATYYCQQSWNTPWTFGQGTKLEIKRLEGQPKANPTVTLFPPSSEELQANKATLVCLISDFYPGAVTVAWKADGSPVKAGVETTKPSKQSNNKYAASSYLSLTPEQWKSHRSYSCQVTHEGSTVEKTVAPTECSGRADCGFTSESYQQGVLSATILYEILLGKATLYAVLVSALVLMAMVKRKDSRGRAKRSGSGATNFSLLKQAGDVEENPGPTSTMDWIWRILFLVGAATGAHSLFNQEVQIPLTESYCGPCPKNWICYKNNCYQFFDESKNWYESQASCMSQNASLLKVYSKEDQDLLKLVKSAHWMGLVHIPTNGSWQWEDGSILSPNLLTIIEMQKGDCALYASSFKGYIENCSTPNTYICMQRTVSGGGGSGGGGSGGGGDLFNQEVQIPLTESYCGPCPKNWICYKNNCYQFFDESKNWYESQASCMSQNASLLKVYSKEDQDLLKLVKSAHWMGLVHIPTNGSWQWEDGSILSPNLLTIIEMQKGDCALYASSFKGYIENCSTPNTYICMQRTVGSGGGGSGGGGSGGGGSFEQVQLQQPGAELVKPGASVKMSCKASGYAFSSYWINWMKQKPGQGLEWIGQIYPGDGDTNYNGKFKGRATLTADTSSSTAYMQLSSLTSEDSAVYFCARSITTVVGCAMDYWGQGTSVTVSSTRASTKGPSVFPLAPSSKSTSGGTAALGCLVKDYFPEPVTVSWNSGALTSGVHTFPAVLQSSGLYSLSSVVTVPSSSLGTQTYICNVNHKPSNTKVDKRVEPKSCIPEDTFFPSPESSCDVKLVEKSFETDTNLNFQNLSVIGFRILLLKVAGFNLLMTLRLWSSRAKRSGSGVKQTLNFDLLKLAGDVESNPGPSRGHMTEYKPTVRLATRDDVPRAVRTLAAAFADYPATRHTVDPDRHIERVTELQELFLTRVGLDIGKVWVADDGAAVAVWTTPESVEAGAVFAEIGPRMAELSGSRLAAQQQMEGLLAPHRPKEPAWFLATVGVSPDHQGKGLGSAVVLPGVEAAERAGVPAFLETSAPRNLPFYERLGFTVTADVEVPEGPRTWCMTRKPGA
B3: 22293 (protein)
chain: MALPVTALLLPLALLLHAARPACMDPDLEIRAAFLRQRNTALRTEVAELEQEVQRLENEVSQYETRYGPLGGGKGTGGGGSGGGGSGGGGSEFDIQMTQSPSSLSASVGDRVTITCKASDHINNWLAWYQQKPGQAPKLLIYGATTLETGVPSRFSGSGSGTDYTLTISSLQPEDFATYYCQQSWNTPWTFGQGTKLEIKRLEDLKNVFPPEVAVFEPSEAEISHTQKATLVCLATGFYPDHVELSWWVNGKEVHSGVCTDPQPLKEQPALNDSRYCLSSRLRVSATFWQNPRNHFRCQVQFYGLSENDEWTQDRAKPVTQIVSAEAWGRADCGFTSESYQQGVLSATILYEILLGKATLYAVLVSALVLMAMVKRKDSRGRAKRSGSGATNFSLLKQAGDVEENPGPTSATMDWIWRILFLVGAATGAHSGPEVQLVESGGGLVQAGGSLRLSCAASGRTFSMGWFRQAPGKEREFVAAITYSGGSPYYADSVKGRFTISRDNAKNTVYLQMNSLKPEDTAVYYCAANPTYGSDWNAENWGQGTQVTVSSGSGGGGSGGGGSGGGGSFEQVQLQQPGAELVKPGASVKMSCKASGYAFSSYWINWMKQKPGQGLEWIGQIYPGDGDTNYNGKFKGRATLTADTSSSTAYMQLSSLTSEDSAVYFCARSITTVVGCAMDYWGQGTSVTVSSTRIQNPDPAVYQLRDSKSSDKSVCLFTDFDSQTNVSQSKDSDVYITDKCVLDMRSMDFKSNSAVAWSNKSDFACANAFNNSIIPEDTFFPSPESSCDVKLVEKSFETDTNLNFQNLSVIGFRILLLKVAGFNLLMTLRLWSSRAKRSGSGVKQTLNFDLLKLAGDVESNPGPSRGHMTEYKPTVRLATRDDVPRAVRTLAAAFADYPATRHTVDPDRHIERVTELQELFLTRVGLDIGKVWVADDGAAVAVWTTPESVEAGAVFAEIGPRMAELSGSRLAAQQQMEGLLAPHRPKEPAWFLATVGVSPDHQGKGLGSAVVLPGVEAAERAGVPAFLETSAPRNLPFYERLGFTVTADVEVPEGPRTWCMTRKPGA

Assays:
Format in all cases: cell-based
RAJI-CD19-KO cells = assay: JNG assay, co-culture with RAJI-CD19-KO cells; details: co-culture with Raji-CD19-KO
Method in brief: (§1)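 Read-out is NFAT-driven GFP measured by flow cytometry after ~4–18 h co-culture of SAR-expressing JNG cells with target cells (E:T about 1:2). SARs were introduced by lentiviral spinfection and selected with puromycin or blasticidin when possible; scores (+/- to 5+ ≈ 5–50% GFP+) are relative to parental JNG cells.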

LNCaP cells = assay: JNG assay, co-culture with LNCaP cells
Method in brief: (§2)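 Read-out: % GFP-positive cells by flow cytometry after ~4 to 18 h coculture of SAR-transduced JNG cells with targets (E:T about 1:2). Scores reflect GFP induction above parental JNG controls: +/- ≈5%, + ≈10%, up to 5+ ≈50%.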

L363 cells = assay: JNG assay, co-culture with L363 cells; details: for NFAT-GFP ASSAY: L363: co-culture with L363
Method in brief: as §1

Nalm6 cells = assay: JNG assay, co-culture with Nalm6 cells; details: co-culture with Nalm6
Method in brief: as §2

RS;411 = assay: JNG assay, co-culture with RS;411 cells; details: co-culture with RS411
Method in brief: as §1

RAJI cells = assay: JNG assay, co-culture with RAJI cells; details: JNG cells expressing construct, co-culture with Raji
Method in brief: as §1

Row | Molecule | NFAT-GFP ASSAY: Raji-CD19-KO (RAJI-CD19-KO cells) | NFAT-GFP ASSAY: LNCaP (LNCaP cells; co-culture with LNCaP) | NFAT-GFP ASSAY: L363 (L363 cells) | NFAT-GFP ASSAY: Nalm6 (Nalm6 cells) | NFAT-GFP ASSAY: RS411 (RS;411) | NFAT-GFP ASSAY: Raji (RAJI cells) | NFAT-GFP ASSAY: LNCaP with PSMA-USC76-chVH-G4S-ULBP2-S3 (LNCaP cells; LNCaP in presence of SAR adaptor PSMA-USC76-chVH-G4S-ULBP2-S3) | NFAT-GFP ASSAY: LNCaP with PSMA-USC76-chVH-EZIP (LNCaP cells; LNCaP in presence of SAR adaptor PSMA-USC76-chVH-EZIP) | NFAT-GFP ASSAY: L363 with BCMA-FHVH-74-EZIP (L363 cells; L363 in presence of SAR adaptor BCMA-FHVH-74-EZIP)
1 | B1 | 5+ (refer to approximately 5%, 10%, 20%, 30%, 40% and 50% GFP positive cells) | 5+ (refer to approximately 5%, 10%, 20%, 30%, 40% and 50% GFP positive cells) | +/- (refer to approximately 5%, 10%, 20%, 30%, 40% and 50% GFP positive cells) | 5+ (refer to approximately 5%, 10%, 20%, 30%, 40% and 50% GFP positive cells) | + (refer to approximately 5%, 10%, 20%, 30%, 40% and 50% GFP positive cells) |  |  |  | 
2 | B2 |  |  | +/- (refer to approximately 5%, 10%, 20%, 30%, 40% and 50% GFP positive cells) |  |  | 3+ (refer to approximately 5%, 10%, 20%, 30%, 40% and 50% GFP positive cells) | + (refer to approximately 5%, 10%, 20%, 30%, 40% and 50% GFP positive cells) |  | 
3 | B3 |  |  |  |  |  |  |  | +5.5 | +3
